Assays:
[1] = target: 2-hydroxymuconate semialdehyde dehydrogenase (NahI) from Pseudomonas putida G7, His-tag removed (GH-NahI) (Pseudomonas putida G7); assay: dynamic light scattering
[2] = target: 2-hydroxymuconate semialdehyde dehydrogenase (NahI) from Pseudomonas putida G7, His-tag removed (GH-NahI) (Pseudomonas putida G7); assay: small-angle X-ray scattering
NahI (GH-NahI) = target: T1, NahI (GH-NahI) (Pseudomonas putida, UniProt Q1XGK8); assay: CD thermal denaturation at […] nm; format: binding; settings: 50 mM sodium phosphate pH 7.4, 50 mM NaCl, 0.3 mg/mL protein; two-step denaturation
T1 sequence (Q1XGK8 1-486): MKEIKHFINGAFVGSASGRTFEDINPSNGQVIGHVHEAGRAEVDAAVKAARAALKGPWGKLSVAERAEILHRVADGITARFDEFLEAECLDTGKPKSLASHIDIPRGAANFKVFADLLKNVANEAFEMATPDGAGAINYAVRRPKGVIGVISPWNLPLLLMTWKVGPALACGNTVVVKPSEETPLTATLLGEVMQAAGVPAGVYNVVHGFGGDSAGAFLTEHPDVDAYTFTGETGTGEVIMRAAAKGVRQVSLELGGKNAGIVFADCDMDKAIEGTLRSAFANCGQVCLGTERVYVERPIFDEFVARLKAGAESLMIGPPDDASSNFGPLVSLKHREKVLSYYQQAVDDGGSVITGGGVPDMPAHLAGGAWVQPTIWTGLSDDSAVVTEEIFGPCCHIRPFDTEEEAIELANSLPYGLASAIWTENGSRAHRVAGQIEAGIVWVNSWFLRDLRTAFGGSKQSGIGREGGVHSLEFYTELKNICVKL

Molecule	stoichiometry N [1]	stoichiometry N [2]	second transition temperature of the NAD+ complex (apo enzyme 73.9 °C) (NahI (GH-NahI))
2-hydroxymuconate semialdehyde dehydrogenase (NahI) from Pseudomonas putida G7, His-tag removed (GH-NahI) (enzyme)	3	4	–
NC(=O)c1ccc[n+]([C@@H]2O[C@H](COP(=O)(O)OP(=O)(O)OC[C@H]3O[C@@H](n4cnc5c(N)ncnc54)[C@H](O)[C@@H]3O)[C@@H](O)[C@H]2O)c1 [NAD^+]	–	–	76.7 °C
